Data taken from paper PMC8529701, “Biofoundry-assisted expression and characterization of plant proteins”.

T1: AtTGA2 (6xHis-HRV3C-AtTGA2-HiBiT, plasmid pEPQDKN0742) (UniProt P43273 1-330)
T1 sequence: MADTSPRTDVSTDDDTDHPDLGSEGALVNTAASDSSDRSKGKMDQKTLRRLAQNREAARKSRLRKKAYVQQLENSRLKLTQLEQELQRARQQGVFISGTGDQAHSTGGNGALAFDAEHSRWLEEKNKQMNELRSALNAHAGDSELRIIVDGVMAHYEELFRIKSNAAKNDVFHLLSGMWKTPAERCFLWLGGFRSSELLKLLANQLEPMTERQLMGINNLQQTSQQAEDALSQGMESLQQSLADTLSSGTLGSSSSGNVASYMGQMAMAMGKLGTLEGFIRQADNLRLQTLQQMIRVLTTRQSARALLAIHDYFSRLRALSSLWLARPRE

B1: TGA TFBS probe (dsDNA)
DNA 1: GACCCCTATTGCAGCTATTTCACCTGACGTAAGGGATGACGCACAGGCCATCACGCAGTA
DNA 2: TACTGCGTGATGGCCTGTGCGTCATCCCTTACGTCAGGTGAAATAGCTGCAATAGGGGTC
B2: Random control probe (dsDNA)
DNA 1: GACCCCTATTGCAGCTATTTCACACATACCAACGCTTAGCGCAATGGCCATCACGCAGTA
DNA 2: TACTGCGTGATGGCCATTGCGCTAAGCGTTGGTATGTGTGAAATAGCTGCAATAGGGGTC

Target: T1, AtTGA2 (6xHis-HRV3C-AtTGA2-HiBiT, …)
Assay: EMSA; 500 ng poly(dI-dC); 20 mM Tris-HCl pH 8.0, 50 mM KCl, 2 mM DTT, 1 mM EDTA, 500 ng poly(dI-dC), 5% glycerol, 0.05% IGEPAL CA630, 0.1 mg/ml BSA; about 500 pmol protein, 5.5 pmol probe; room temperature 1 h; 6% TBE gel
Details: protein: ivt; tags: N-terminal NET-6xHis-HRV3C (as described for plasmid); C-terminal HiBiT; label: Alexa-488 at 5' end of the complementary strand (Klenow extension of labelled primer S3); blunt

Binder | binding result
B1 | binds
B2 | no binding
